The values below come from PMC8285524, “Selective targeting of ligand-dependent and -independent signaling by GPCR conformation-specific anti-US28 intrabodies” (Nature Communications, 2021).

Assay [1] concerns the target NLuc-US28-Nb7 (human cytomegalovirus (HCMV)) (UniProt P69332). The experiment in a line: FRET or BRET; BRET-based saturation binding of Alexa647-labeled chemokine (0.1 pM-10 nM) to 100 ng membranes with NLuc-US28 constructs; HBSS with 0.05% BSA, 1 h at RT, 10 µM furimazine. A general note: BRET reads energy transfer from a luciferase to a nearby fluorophore.
Assay [2] deals with NLuc-US28-Irr Nb (human cytomegalovirus (HCMV)) (UniProt P69332). The assay is described as above.
The target of assay [3] is NLuc-US28-VUN103 (human cytomegalovirus (HCMV)) (UniProt P69332). Described as above.
Assay [4] addresses NLuc-US28 WT (human cytomegalovirus (HCMV)), P69332. The description is as above.
Assay [5] concerns the target T1, US28 wildtype (human cytomegalovirus (HCMV), UniProt P69332 1-354, Strain: VHL/E is stated for some constructs, but its sequence is neither printed nor among the candidates. The AD169 entry is used as the closest wild type, so a few strain-specific residues may diffe).
T1 chain: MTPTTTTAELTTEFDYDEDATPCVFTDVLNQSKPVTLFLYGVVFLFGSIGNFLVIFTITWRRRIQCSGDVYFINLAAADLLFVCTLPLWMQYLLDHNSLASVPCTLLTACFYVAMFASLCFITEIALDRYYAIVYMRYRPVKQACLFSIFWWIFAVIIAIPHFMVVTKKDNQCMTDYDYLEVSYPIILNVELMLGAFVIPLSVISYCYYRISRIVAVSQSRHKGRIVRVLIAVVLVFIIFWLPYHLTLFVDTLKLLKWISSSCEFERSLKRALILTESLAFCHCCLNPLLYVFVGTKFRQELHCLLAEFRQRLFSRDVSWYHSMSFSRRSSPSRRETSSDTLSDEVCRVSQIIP
Put plainly: radioligand binding; displacement of 100 pM 125I-CX3CL1 or 200 pM 125I-CCL5 from 3 µg US28-expressing membranes (no intrabody) by unlabeled ligand; HEPES binding buffer pH 7.4, 0.1 M NaCl, 0.5% BSA; 2 h at room temperature; GF/C filtration. The conditions noted are these: one partner purified.

For assay [6], the target named is T1, US28 wildtype. Put plainly: radioligand binding; as a1, displacement of 125I-CCL5, membranes of HEK293T cells co-expressing US28 WT and the intrabody Nb7-mVenus. The following applies: one partner purified. (In general: Displacement assays read how much labelled ligand stays bound in the presence of the test substance.)
Assay [7] deals with T1, US28 wildtype. Put plainly: radioligand binding; as a1, displacement of 125I-CCL5, membranes of HEK293T cells co-expressing US28 WT and the intrabody VUN103-mVenus. The following applies: one partner purified.

For the molecule “CX3CL1-Alexa647 (from UniProt P78423 25-341) (ligand)”, the pKD (as a rule, the negative decadic logarithm of the KD, by convention in mol/L) in assay [1] turned out to be 10.4; in assay [2], 9.6; in assay [3] it was 9.6.

B1: CX3CL1-Alexa647, P78423 25-341 (ligand)
chain: QHHGVTKCNITCSKMTSKIPVALLIHYQQNQASCGKRAIILETRQHRLFCADPKEQWVKDAMQHLDRQAAALTRNGGTFEKQIGEVKPRTTPAAGGMDESVVLEPEATGESSSLEPTPSSQEAQRALGTSPELPTGVTGSSGTRLPPTPKAQDGGPVGTELFRVPPVSTAATWQSSAPHQPGPSLWAEAKTSEAPSTQDPSTQASTASSPAPEENAPSEGQRVWGQGQSPRPENSLEREEMGPVPAHTDAFQDWGPGSMAHVSVVPVSSEGTPSREPVASGSWTPKAEEPIHATMDPQRLGVLITPVPDAQAATRRQ
modifications: here or on the partner: Alexa Fluor 647 label
In assay [4], B1 showed a negative logarithm of the KD (pKD) of 9.6.

B2: CX3CL1 (unlabeled) (ligand, UniProt P78423 25-341, looked up)
chain: B1 chain
notes: CX3CL1 (fractalkine), chemokine ligand of US28; also called fractalkine; source: bought: PeproTech (stated for the BRET assays)
With B2, the pKi (in general, the negative decadic logarithm of the Ki, by convention in mol/L) worked out at 9.9 with US28 wildtype [5], 10.7 with US28 wildtype [6] and 9.7 with US28 wildtype [7].
